Test results as given in patent US20260042848A1.

Target: native human AXL on non-transfected human cell lines (A-431, A-549, HeLa, MDA-MB-231, NCI-H1299) (human) (UniProt P30530)
Experiment: cell-based or functional assay

Sequence of native human AXL on non-transfected human cell lines (A-431, A-549, HeLa, MDA-MB-231, NCI-H1299) (human) (P30530 26-894 limits assumed): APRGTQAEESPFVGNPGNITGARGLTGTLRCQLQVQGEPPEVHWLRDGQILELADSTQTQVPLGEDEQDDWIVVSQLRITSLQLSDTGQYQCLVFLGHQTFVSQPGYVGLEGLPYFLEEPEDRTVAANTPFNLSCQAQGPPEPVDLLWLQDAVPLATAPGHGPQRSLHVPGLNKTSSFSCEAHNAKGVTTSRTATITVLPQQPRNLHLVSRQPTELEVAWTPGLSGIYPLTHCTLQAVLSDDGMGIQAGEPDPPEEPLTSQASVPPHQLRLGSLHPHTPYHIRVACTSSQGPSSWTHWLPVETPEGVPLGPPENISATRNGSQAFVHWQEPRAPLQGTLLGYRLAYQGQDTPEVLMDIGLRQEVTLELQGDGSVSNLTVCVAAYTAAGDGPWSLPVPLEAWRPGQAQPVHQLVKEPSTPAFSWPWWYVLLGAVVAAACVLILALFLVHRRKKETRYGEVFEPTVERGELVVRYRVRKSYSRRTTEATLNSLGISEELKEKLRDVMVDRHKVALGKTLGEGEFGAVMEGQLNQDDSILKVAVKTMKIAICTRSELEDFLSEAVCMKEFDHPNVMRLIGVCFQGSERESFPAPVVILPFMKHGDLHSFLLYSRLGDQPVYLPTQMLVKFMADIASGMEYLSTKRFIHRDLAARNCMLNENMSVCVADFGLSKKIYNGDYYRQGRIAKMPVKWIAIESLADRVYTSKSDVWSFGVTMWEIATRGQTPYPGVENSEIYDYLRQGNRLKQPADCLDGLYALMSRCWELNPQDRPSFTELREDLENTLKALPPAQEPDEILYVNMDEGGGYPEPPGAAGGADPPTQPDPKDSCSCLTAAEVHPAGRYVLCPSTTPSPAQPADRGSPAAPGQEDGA

isotype control (Example 5) (antibody)
AKT phosphorylation in H1299 cells without Gas6; APC-A Geometric mean; p-AKT APC + isotype control: 4380 | AKT phosphorylation in H1299 cells without Gas6; Median: APC-A; p-AKT APC + isotype control: 4430 | ERK phosphorylation in H1299 cells without Gas6; APC-A Geometric mean; p-ERK A647 + isotype control: 965 | ERK phosphorylation in H1299 cells without Gas6; Median: APC-A; p-ERK A647 + isotype control: 274 | Gas6 induced AKT phosphorylation in H1299 cells; APC-A Geometric mean; p-AKT APC + isotype control + Gas6: 8380 | Gas6 induced AKT phosphorylation in H1299 cells; Median: APC-A; p-AKT APC + isotype control + Gas6: 9120 | Gas6 induced ERK phosphorylation in H1299 cells; APC-A Geometric mean; p-ERK A647 + isotype control + Gas6: 1320 | Gas6 induced ERK phosphorylation in H1299 cells; Median: APC-A; p-ERK A647 + isotype control + Gas6: 1020
